According to publication PMC6249252, “COMP and TSP-4 interact specifically with the novel GXKGHR motif only found in fibrillar collagens” (Scientific Reports, 2018):
Where two headings read alike, the source gives them in different places.

Legend:
[1] = CD spectroscopy thermal unfolding of collagen model peptides; assay type: physicochemical; conditions: CD spectroscopy at 210 nm, heated at 1 °C/min, approx. 0.1 mg/ml, 1 mm cell, 4 parameter logistic fit
Experimental: CD spectra of the col2p5 peptide and its derivatives were measured using a Jasco J–715 equipped with a peltier-element cuvette cooler. The samples were heated at 1 °C/min in a 1 mm path length quartz cell at approx. 0.1 mg/ml. Thermal unfolding was measured in a range between 20 °C and 70–90 °C and specific ellipticity recorded at 210 nm ever 1 °C. Additionally, every 5 °C far-UV spectra (200–250 nm) were recorded in triplicates. Data was fitted with a 4 parameter logistic fit using Origin 2017[45].

COMP [2] = molecular target: T1, COMP (Homo sapiens, UniProt P49747); assay: ELISA-style binding assay, COMP on coated collagen model peptides / collagen; conditions: for Kd: peptide or collagen coated at 10 µg/ml (500 ng per well) on ELISA plate, pentameric COMP at indicated concentrations, 1 h, room temperature, TBS-T with 0.25% BSA, anti-COMP antibody, four-parameter logistic fit, triplicates, read-out: Apparent KD; for effect of additive in interaction buffer on COMP binding to peptide 5: peptide 5 coated, COMP in pure TBS-T with the indicated chemical compound, compared to pure TBS (Fig. 3b)
T1 sequence (P49747 21-757): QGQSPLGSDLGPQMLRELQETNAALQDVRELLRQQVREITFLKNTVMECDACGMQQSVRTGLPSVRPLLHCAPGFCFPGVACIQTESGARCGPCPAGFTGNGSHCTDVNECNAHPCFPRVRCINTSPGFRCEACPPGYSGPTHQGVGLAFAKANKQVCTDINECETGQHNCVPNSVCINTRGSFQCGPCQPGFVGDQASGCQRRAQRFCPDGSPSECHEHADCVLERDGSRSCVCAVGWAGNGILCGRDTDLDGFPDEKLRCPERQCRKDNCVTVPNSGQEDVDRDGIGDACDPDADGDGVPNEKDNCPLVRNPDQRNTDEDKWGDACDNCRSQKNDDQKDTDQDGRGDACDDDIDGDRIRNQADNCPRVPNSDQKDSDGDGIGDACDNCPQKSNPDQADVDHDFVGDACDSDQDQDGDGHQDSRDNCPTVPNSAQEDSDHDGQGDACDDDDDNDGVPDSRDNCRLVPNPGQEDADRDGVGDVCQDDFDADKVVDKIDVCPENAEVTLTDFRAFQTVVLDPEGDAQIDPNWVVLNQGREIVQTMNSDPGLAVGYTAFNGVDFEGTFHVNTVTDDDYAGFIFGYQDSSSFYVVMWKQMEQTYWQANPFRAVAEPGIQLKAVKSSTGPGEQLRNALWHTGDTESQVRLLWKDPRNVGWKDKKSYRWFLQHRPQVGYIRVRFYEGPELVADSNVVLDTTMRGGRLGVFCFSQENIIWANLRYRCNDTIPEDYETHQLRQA
Experimental: (§1) For ELISA-style binding assays, rat tail collagen I (BD Bioscience) or the indicated collagen model peptides were diluted in TBS and coated at 10 µg/ml (500 ng per well) overnight at 4 °C. Further steps were performed at room temperature. After washing with TBS-T (TBS containing 0.05% (vol/vol) Tween-20), plates were blocked for 1 h with 1% (wt/vol) BSA in TBS. Strep-tagged COMP was added at indicated concentrations in TBS-T containing 0.25% (wt/vol) BSA) and incubated for 1 h. For assays with addition of cations pure TBS-T was used as interaction buffer. After washing away unbound protein with TBS-T, bound COMP was detected with a 1:3000 dilution of a specific polyclonal antibody against bovine COMP in interaction buffer. The antibody was raised in rabbit against bovine COMP purified from articular cartilage and characterised before in various studies[46]–[48]. The TSP-4 antibody was raised in guinea pigs and was previously described and characterised[30],[49]. The primary antibodies were detected with an HRP–conjugated swine anti-rabbit (DAKO, P0399) or rabbit anti-guinea pig antibody (Sigma, A5545). Bound secondary antibodies were visualised with tetramethylbenzidine as substrate, the reaction was either measured directly at 370 nm or stopped with 10% H2SO4 and measured at 450 nm. Data were analysed using Origin 2017 and fitted using a four-parameter logistic model.

TSP-4 = TSP-4 (UniProt P35443); assay: ELISA-style binding assay, TSP-4 on coated GVKGHR foldon construct; conditions: GVKGHR foldon construct coated to ELISA plate, incubated with TSP4, anti-TSP4 antibody; fitted; triplicates
Chain of TSP-4 (P35443 27-961): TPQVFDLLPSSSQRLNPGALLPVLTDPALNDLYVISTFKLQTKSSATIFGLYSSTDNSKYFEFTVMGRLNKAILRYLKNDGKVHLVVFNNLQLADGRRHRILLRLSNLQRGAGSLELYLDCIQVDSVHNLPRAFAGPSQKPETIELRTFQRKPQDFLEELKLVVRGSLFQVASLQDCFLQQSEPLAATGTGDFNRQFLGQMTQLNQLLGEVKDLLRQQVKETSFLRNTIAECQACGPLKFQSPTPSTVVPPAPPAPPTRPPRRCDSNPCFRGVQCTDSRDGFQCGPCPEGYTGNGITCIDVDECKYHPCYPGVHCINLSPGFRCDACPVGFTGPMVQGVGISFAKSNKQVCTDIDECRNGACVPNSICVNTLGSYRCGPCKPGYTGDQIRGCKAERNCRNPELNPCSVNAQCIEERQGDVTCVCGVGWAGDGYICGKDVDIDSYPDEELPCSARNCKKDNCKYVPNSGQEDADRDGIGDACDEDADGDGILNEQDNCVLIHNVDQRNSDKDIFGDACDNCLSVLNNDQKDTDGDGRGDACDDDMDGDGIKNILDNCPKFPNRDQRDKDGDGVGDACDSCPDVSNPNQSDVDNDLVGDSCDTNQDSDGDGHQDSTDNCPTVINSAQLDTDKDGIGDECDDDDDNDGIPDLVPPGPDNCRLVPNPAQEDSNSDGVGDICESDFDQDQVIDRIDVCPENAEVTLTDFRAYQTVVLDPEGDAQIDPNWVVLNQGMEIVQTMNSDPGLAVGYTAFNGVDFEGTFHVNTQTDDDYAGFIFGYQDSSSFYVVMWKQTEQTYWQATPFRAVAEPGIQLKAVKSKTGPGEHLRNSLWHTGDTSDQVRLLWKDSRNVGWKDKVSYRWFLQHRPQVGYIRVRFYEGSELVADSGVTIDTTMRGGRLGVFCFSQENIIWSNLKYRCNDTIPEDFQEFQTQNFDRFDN
Experimental: as §1

COMP [3] = molecular target: T1, COMP; conditions: read-out: dissociation constant for COMP reported for collagen II; cited from earlier work
Experimental: To elucidate the binding site of COMP on the collagen II helix we incubated pentameric COMP at 200 nM concentration with our generated collagen II foldon library (Fig. 2). […] To confirm our finding and get proper binding affinities we coated the peptide 5 and incubated it with indicated concentration of COMP (Fig. 3a). The dissociation constant for COMP and pep5 (19.3 ± 12 nM) was slightly higher than reported for collagen II (1.72 ± 0.16 nM)[10]. ...

[4] = Dynamic light scattering of COMP solution with ZnCl; assay type: physicochemical; conditions: 20 °C, cumulant radius over time
Experimental: Dynamic light scattering (DLS) was measured with a Wyatt DynaPro Nanostar using the disposable cuvettes (UVettes, Eppendorf). Data was acquired as a mean of 5 acquisitions, measured each for 5 s at a fixed temperature of 20 °C. The laser was set to auto-attenuation and the data analysed with the Dynamics software from Wyatt. Graph show the cumulant radius versus time for COMP with indicated ZnCl2 concentrations.

| Molecule | Melting point (°C) [1] | Kd (COMP [2]) | also measured |
| --- | --- | --- | --- |
| GLPGPKGHR | 52.5 ± 0.6 °C | 2.26 ± 0.39 nM | – |
| GEAGEPGERGLKGHRGFTGLQGLPGPP [peptide 52, library peptide with the C-terminal GLKGHR motif of collagen II, foldon context] | – | 4.1 ± 0.8 nM | – |
| GVKGHR | 56.5 ± 0.6 °C | 1.61 ± 0.29 nM | Kd (TSP-4): 0.56 ± 0.05 nM |
| GARGFPGTPGLPGVKGHRGYPGLDGAK [peptide 5, E. coli expressed collagen II library peptide in NStrep-(GPP)6-GUEST-(GPP)6-foldon context] | 36.1 ± 0.5 °C | 19.3 ± 12.4 nM | – |
| [Cl-].[Cl-].[Zn+2] [zinc, reference compound] | – | – | effect of additive in interaction buffer on COMP binding to peptide 5 (COMP [2]): increased the affinity towards the peptides |
| O=C(O)CN(CCN(CC(=O)O)CC(=O)O)CC(=O)O [EDTA, reference compound] | – | – | effect of additive in interaction buffer on COMP binding to peptide 5 (COMP [2]): reduced the binding significantly |
| GLPGVKGHR [unique region of pep5 in N-Strep-(GPP)6-GUEST-(GPP)6-foldon context] | 48.2 ± 0.6 °C | – | COMP binding to minimal motif peptides (ELISA signal) (COMP [2]; COMP at 400 nM, one-point measurements (Fig. 4a), or at indicated concentrations (Fig. 4b)): sufficient for binding |
| collagen II: collagen II, literature value for COMP binding | – | – | Kd (COMP [3]): 1.72 ± 0.16 nM |
| GLPGVPGHR | 51.1 ± 0.3 °C | – | – |
| c1cnc2c(c1)ccc1cccnc12 [phenanthroline, 1,10-phenanthroline, reference compound] | – | – | effect of additive in interaction buffer on COMP binding to peptide 5 (COMP [2]): does not reduce the binding compared to pure TBS |
| COMP: recombinant pentameric cartilage oligomeric matrix protein, Strep-tagged, expressed in HEK293 (EBNA) cells | – | – | hydrodynamic radius via DLS (aggregation) ([4]; 0.0 mM versus 0.1 mM ZnCl): could not detect any difference; hydrodynamic radius via DLS (aggregation) ([4]; addition of 1 mM ZnCl): starts to aggregate dramatically |
| GLPGVKGHP | 47.9 ± 0.4 °C | – | – |
